Measured values taken from patent US20220135694A1, “NOVEL CD40-BINDING ANTIBODIES” (LAVA THERAPEUTICS B.V., priority 2019, published 2022).

Columns and labels:
CD40 = target: T1, CD40 (Homo sapiens, UniProt P25942); assay: CD40 agonistic activity in primary CLL cells, 48 h, flow cytometry; format: cell-based; settings: FIG. 7A-C
T1 construct: Primary chronic lymphocytic leukemia (CLL) cells express CD40 on the cell surface; endogenous in cells; host or cells: primary CLL PBMCs from untreated CLL patients
T1 sequence (P25942 21-277): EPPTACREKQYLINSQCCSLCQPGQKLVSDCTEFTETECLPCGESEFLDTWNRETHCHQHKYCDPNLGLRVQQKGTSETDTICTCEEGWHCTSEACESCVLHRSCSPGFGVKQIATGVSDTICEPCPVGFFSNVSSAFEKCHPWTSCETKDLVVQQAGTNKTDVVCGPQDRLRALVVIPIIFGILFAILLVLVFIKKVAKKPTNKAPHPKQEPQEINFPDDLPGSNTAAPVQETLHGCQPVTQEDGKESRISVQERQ
Method: PBMCs (≥90% CD5^+CD19^+) from untreated CLL patients were obtained and cryopreserved as described in Example 3. Thawed cells were kept in complete IMDM.
To assess whether binding of the VHH to CD40 has agonistic effects, primary CLL PBMCs were cultured for 48 hours in the presence of VHH, medium control or recombinant multimeric CD40 ligand (rmCD40L; 100 ng/mL, Bioconnect).
After 48 hours, cells were harvested, washed and incubated with AF700-conjugated anti-CD19 (557921), FITC-conjugated anti-CD80 (6109965), APC-conjugated anti-CD86 (555660, all BD Biosciences), PE-conjugated anti-CD5 (12-0059-42, Thermo Fisher Scientific) and PECy7-conjugated anti-CD95 (305621, Biolegend, San Diego, Calif., USA) antibodies for 20 minutes at 4° C. Alternatively, after 48 hours, cells were harvested and viability was measured using Mitotracker Orange (25-minute incubation at 37° C.) and To-pro-3 (10-minute incubation at room temperature; both Thermo Fisher Scientific). Samples were measured on a FACSCanto cytometer (BD Biosciences) and analyzed with Flowjo MacV10.
To assess whether binding of the VHH has agonistic effects, primary CLL PBMCs were cultured with the indicated concentrations of V19S76K-5C8, medium control or rmCD40L for 48 hours and analyzed by flow cytometry as described in Example 4.

[1] = target: T2, human CD40 (CD40-transfected HEK293T cells) (Homo sapiens, UniProt P25942); assay: Bispecific VHH binding to CD40-transfected HEK293T cells, anti-llama IgG flow cytometry; settings: 1 μM; FIG. 5
T2 construct: expressed in transfected cells; host or cells: HEK293T
T2 sequence (P25942 21-277): as above
Method: The embryonic kidney cell line HEK293T, either wildtype (WT) or transfected with human CD40, was grown in complete DMEM.
To assess VHH binding, cells were incubated with V19S76K-5C8 (1 μM) or medium control for 30 minutes at 37° C. Bound VHH was detected by incubation with FITC-conjugated goat-anti-llama IgG-heavy and light chain antibodies (A160-100F, Bethyl Laboratories Inc., Montgomery, Tex., USA) for 20 minutes at 4° C.
After 48 hours, cells were analyzed by flow cytometry as described in Example 2.

Vγ9Vδ2-T cells = assay: Cytokine and degranulation assay: Vγ9Vδ2-T cell lines with CD40+ CII cells; format: cell-based, human; settings: for degranulation of Vγ9Vδ2-T cells (CD107a): FIG. 10A
Method: (§1) CD40^+ CII cells and Vγ9Vδ2-T cells were grown as described in Example 7.
Vγ9Vδ2-T cell lines were incubated with V19S76K-5C8 or medium control for 30 minutes at 37° C. Subsequently, Vγ9Vδ2-T cells were cocultured with CII cells for 4 hours in a 1:1 ratio in the presence of Brefeldin A (10 μg/mL; B7651, Merck), GolgiStop (554724) and PECy7-conjugated anti-CD107a (561348, both BD Biosciences). Cells were then washed and surface staining was performed with Fixable Viability Dye eFluor506 (65-0866-14), AF700-conjugated anti-CD3 (56-0038-82, both Thermo Fisher Scientific) and FITC-conjugated anti-Vγ9-TCR (IM1463, Beckman Coulter) antibodies. Cytofix/Cytoperm reagent (554722) was used for detection of intracellular cytokines with BUV395-conjugated anti-IFN-γ (563563), […] anti-TNF-α (563418, all BD Biosciences) and PE/Dazzle594-conjugated anti-IL-2 (500343, Biolegend).
Samples were measured on an LSRFortessa cytometer (BD Biosciences) and analyzed with Flowjo MacV10.

CD40+ CII target cells = assay: Cytotoxicity assay: CII target cells with Vγ9Vδ2-T cells; format: cell-based, human; settings: 1:1 ratio
Method: as §1
CII target cells were labeled with carboxyfluorescein succinimidyl ester (CFSE; C1157, Thermo Fisher Scientific) and incubated with VHH or medium control for 30 minutes at 37° C. Target cells were then cocultured overnight with Vγ9Vδ2-T cell lines in a 1:1 ratio.
Viability was measured as described in Example 4.

[2] = system: CD40-transfected HEK293T cells; assay: Cytotoxicity assay: CD40-transfected HEK293T target cells with Vγ9Vδ2-T cells; format: cell-based, human
Method: HEK293T cells, either wildtype (WT) or transfected with human CD40, were grown as described in Example 2. Vγ9Vδ2-T cells were grown as described in Example 7.
The cytotoxicity experiment, viability measurement and flow cytometry were performed as described in Example 12.

[3] = system: Vγ9Vδ2-T cells present in the bone marrow of MM patients; assay: Activation of Vγ9Vδ2-T cells in bone marrow mononuclear cells from MM patients; format: cell-based, human; settings: 10 nM, overnight
Method: FIG. 17: V19S76K-5C8 is active against primary multiple myeloma. (A) Example of CD40 expression on primary MM cells, as detected using anti-CD40 PE antibody, clone MAB89, Beckman Couter, IM1936U. Representative histograms of 4 donors (B) Bone marrow of MM patients was cultured overnight in the presence or absence of healthy donor-derived Vγ9Vδ2-T cells in a 1:1 (Vγ9Vδ2-T:plasma cell) ratio in the absence or presence of V19S76K-5C8 (10 μM or 10 nM). Live plasma cells were quantified by flow cytometry using counting beads (n=5). (C, D) Mononuclear cells from the bone marrow of MM patients were cultured overnight with V19S76K-5C8 (VHH; 10 nM), aminobisphosphonate (ABP; 10 μM zoledronic acid (positive control)) or medium control in the presence of brefeldin, monensin and anti-CD107a to measure (C) cytokine production and (D) degranulation by flow cytometry (n=6). Data are presented as mean and SEM. *P<0.05, **P<0.01. (B-D: repeated-measures one-way ANOVA followed by Dunnett's post hoc test compared to condition without antibody).
Similarly, Vγ9Vδ2-T cells present in bone marrow mononuclear cells from MM patients degranulated after culture with the bispecific VHH V19S76K-5C8 (FIG. 17D).

B1: V19S76K-5C8: tag-less bispecific anti-CD40-anti-Vγ9Vδ2-TCR VHH, SEQ ID NO:23 (protein)
VHH: QVQLQESGGGLVQAGGSLRLSCAASGRTFGRSAMGWFRQAPGKEREFVAAIGTRGGSTKYADSVKGRFTISTDNAKNTVYLQMDSLKPEDTAVYRCAVRGPGYPSAAIFQDEYHYWGQGTQVTVSSGGGGSEVQLVESGGGLVQAGGSLRLSCAASGRPFSNYAMGWFRQAPGKEREFVAAISWSGGSTSYADSVKGRFTISRDNAKNTVYLQMNSPKPEDTAIYYCAAQFSGADYGFGRLGIRGYEYDYWGQGTQVTVSS
modifications: antibody sequence
B1 was tested, and the “CD40 stimulation (expression of CD80, CD86 and CD95)” value (CD40) was “none of the V19S76K-5C8 concentrations tested increased the expression of CD80, CD86 or CD95”, the “binding to CD40-expressing HEK293T cells” value [1] was “binds to the CD40-expressing HEK293T cells” and the “degranulation of Vγ9Vδ2-T cells (CD107a)” value (Vγ9Vδ2-T cells; CD40+ CII cells not present) was “did not induce this level of degranulation”. The “degranulation of Vγ9Vδ2-T cells (CD107a)” value (Vγ9Vδ2-T cells; with CD40+ CII cells, 1:1 ratio, 4 hours) was “the large majority of Vγ9Vδ2-T cells degranulated”, the “IFN-γ, TNF-α and IL-2 production by Vγ9Vδ2-T cells” value (Vγ9Vδ2-T cells; with or without CD40+ CII cells, FIG. 10B-D) was “A similar pattern was observed” and the EC50 (CD40+ CII target cells; lysis of CII target cells with Vγ9Vδ2-T cells, FIG. 11B, read-out: half maximal effective concentration) was 9.1 µM. The “lysis of CII target cells” value (CD40+ CII target cells; overnight with Vγ9Vδ2-T cells, FIG. 11A) was “increased markedly”, the “lysis of CD40-transfected HEK293T cells” value ([2]; overnight with Vγ9Vδ2-T cells, 1:1 ratio, FIG. 12) was “strongly enhanced” and the “lysis of either WT or CD40-transfected HEK293T cells” value ([2]; without Vγ9Vδ2-T cells) was “did not induce lysis”. For the same molecule, the “production of IFN-γ and TNF-α by bone marrow Vγ9Vδ2-T cells” value ([3]; FIG. 17C) was “triggered to produce the pro-inflammatory cytokines IFN-γ and TNF-α” and the “degranulation of bone marrow Vγ9Vδ2-T cells” value ([3]; FIG. 17D) was “degranulated”.
